The source of these data is the RNAGym collection of RNA variant scans (doi:10.1021/acssynbio.7b00057).

B1: Pistol ribozyme (parent)
chain: GGGUCGUUGUUCCAUAAUCGCGUGGAUAUGGCACGCAAGUUUCUACCGGGCACCGUAAAUGUCCGACUGGAGCCGUUCGGGCGGCUAUAAACAGACCUCAGGCCCGAAGCGUGGCGGCACCUGCCGCCGGUGGUAAAAAAGAUCGGAAGAGCACACGUCU

The variants in this data set derive from B1. The experiment in a line: aptazyme ON/OFF ratio, guanine; higher = stronger switching; co-transcriptional cleavage with and without guanine.
Consider GGGUCGUACGGUAAUAAUCGCGUGGAUAUGGCACGCAAGUUUCUACCGGGCACCGUAAAUGUCCGACUGGAGCCGUUCGGGCGGCUAUAAACAGACCUCAGGCCCGAAGCGUGGCGGCACCUGCCGCCGGUGGUAAAAAAGAUCGGAAGAGCACACGUCU, for which the “aptazyme ON/OFF ratio” value came to 1.08.
The value for GGGUCGUACGGGUAUAAUCGCGUGGAUAUGGCACGCAAGUUUCUACCGGGCACCGUAAAUGUCCGACUGGAGCCGUUCGGGCGGCUAUAAACAGACCUCAGGCCCGAAGCGUGGCGGCACCUGCCGCCGGUGGUAAAAAAGAUCGGAAGAGCACACGUCU was 1.31; that for GGGUCGUACGGGGAUAAUCGCGUGGAUAUGGCACGCAAGUUUCUACCGGGCACCGUAAAUGUCCGACUGGAGCCGUUCGGGCGGCUAUAAACAGACCUCAGGCCCGAAGCGUGGCGGCACCUGCCGCCGGUGGUAAAAAAGAUCGGAAGAGCACACGUCU was 1.23; that for GGGUCGUACGGGAAUAAUCGCGUGGAUAUGGCACGCAAGUUUCUACCGGGCACCGUAAAUGUCCGACUGGAGCCGUUCGGGCGGCUAUAAACAGACCUCAGGCCCGAAGCGUGGCGGCACCUGCCGCCGGUGGUAAAAAAGAUCGGAAGAGCACACGUCU was 1.14.
The value for GGGUCGUACGACGAUAAUCGCGUGGAUAUGGCACGCAAGUUUCUACCGGGCACCGUAAAUGUCCGACUGGAGCCGUUCGGGCGGCUAUAAACAGACCUCAGGCCCGAAGCGUGGCGGCACCUGCCGCCGGUGGUAAAAAAGAUCGGAAGAGCACACGUCU was 1.06.
On to GGGUCGUACGACAAUAAUCGCGUGGAUAUGGCACGCAAGUUUCUACCGGGCACCGUAAAUGUCCGACUGGAGCCGUUCGGGCGGCUAUAAACAGACCUCAGGCCCGAAGCGUGGCGGCACCUGCCGCCGGUGGUAAAAAAGAUCGGAAGAGCACACGUCU, for which the “aptazyme ON/OFF ratio” value is 1.03.
The value for GGGUCGUACGACUAUAAUCGCGUGGAUAUGGCACGCAAGUUUCUACCGGGCACCGUAAAUGUCCGACUGGAGCCGUUCGGGCGGCUAUAAACAGACCUCAGGCCCGAAGCGUGGCGGCACCUGCCGCCGGUGGUAAAAAAGAUCGGAAGAGCACACGUCU was 1.02; that for GGGUCGUACGCCAAUAAUCGCGUGGAUAUGGCACGCAAGUUUCUACCGGGCACCGUAAAUGUCCGACUGGAGCCGUUCGGGCGGCUAUAAACAGACCUCAGGCCCGAAGCGUGGCGGCACCUGCCGCCGGUGGUAAAAAAGAUCGGAAGAGCACACGUCU was 1.11.
The value for GGGUCGUACGCCGAUAAUCGCGUGGAUAUGGCACGCAAGUUUCUACCGGGCACCGUAAAUGUCCGACUGGAGCCGUUCGGGCGGCUAUAAACAGACCUCAGGCCCGAAGCGUGGCGGCACCUGCCGCCGGUGGUAAAAAAGAUCGGAAGAGCACACGUCU was 1.06; that for GGGUCGUACGCCUAUAAUCGCGUGGAUAUGGCACGCAAGUUUCUACCGGGCACCGUAAAUGUCCGACUGGAGCCGUUCGGGCGGCUAUAAACAGACCUCAGGCCCGAAGCGUGGCGGCACCUGCCGCCGGUGGUAAAAAAGAUCGGAAGAGCACACGUCU was 1.03.
The value for GGGUCGUACGGGCAUAAUCGCGUGGAUAUGGCACGCAAGUUUCUACCGGGCACCGUAAAUGUCCGACUGGAGCCGUUCGGGCGGCUAUAAACAGACCUCAGGCCCGAAGCGUGGCGGCACCUGCCGCCGGUGGUAAAAAAGAUCGGAAGAGCACACGUCU was 1.24; that for GGGUCGUACGGUCAUAAUCGCGUGGAUAUGGCACGCAAGUUUCUACCGGGCACCGUAAAUGUCCGACUGGAGCCGUUCGGGCGGCUAUAAACAGACCUCAGGCCCGAAGCGUGGCGGCACCUGCCGCCGGUGGUAAAAAAGAUCGGAAGAGCACACGUCU was 1.23.
Regarding GGGUCGUACGGACAUAAUCGCGUGGAUAUGGCACGCAAGUUUCUACCGGGCACCGUAAAUGUCCGACUGGAGCCGUUCGGGCGGCUAUAAACAGACCUCAGGCCCGAAGCGUGGCGGCACCUGCCGCCGGUGGUAAAAAAGAUCGGAAGAGCACACGUCU, the “aptazyme ON/OFF ratio” value was determined as 1.14.
The value for GGGUCGUACGCCCAUAAUCGCGUGGAUAUGGCACGCAAGUUUCUACCGGGCACCGUAAAUGUCCGACUGGAGCCGUUCGGGCGGCUAUAAACAGACCUCAGGCCCGAAGCGUGGCGGCACCUGCCGCCGGUGGUAAAAAAGAUCGGAAGAGCACACGUCU was 1.05.
The value for GGGUCGUACGGCCAUAAUCGCGUGGAUAUGGCACGCAAGUUUCUACCGGGCACCGUAAAUGUCCGACUGGAGCCGUUCGGGCGGCUAUAAACAGACCUCAGGCCCGAAGCGUGGCGGCACCUGCCGCCGGUGGUAAAAAAGAUCGGAAGAGCACACGUCU was 1.07; that for GGGUCGUACGCAGAUAAUCGCGUGGAUAUGGCACGCAAGUUUCUACCGGGCACCGUAAAUGUCCGACUGGAGCCGUUCGGGCGGCUAUAAACAGACCUCAGGCCCGAAGCGUGGCGGCACCUGCCGCCGGUGGUAAAAAAGAUCGGAAGAGCACACGUCU was 1.12; that for GGGUCGUACGCAAAUAAUCGCGUGGAUAUGGCACGCAAGUUUCUACCGGGCACCGUAAAUGUCCGACUGGAGCCGUUCGGGCGGCUAUAAACAGACCUCAGGCCCGAAGCGUGGCGGCACCUGCCGCCGGUGGUAAAAAAGAUCGGAAGAGCACACGUCU was 1.17.
The value for GGGUCGUACGCAUAUAAUCGCGUGGAUAUGGCACGCAAGUUUCUACCGGGCACCGUAAAUGUCCGACUGGAGCCGUUCGGGCGGCUAUAAACAGACCUCAGGCCCGAAGCGUGGCGGCACCUGCCGCCGGUGGUAAAAAAGAUCGGAAGAGCACACGUCU was 1.21.
